# B1: NIP45: 45 Kd NFAT interacting protein of 412 amino acids (SEQ ID NO: 2), expressed from a transfected expression plasmid (protein, listed as Mus musculus)
# chain: MAEPLRGRGPRSRGGRGARRARGARGRCPRARQSPARLIPDTVLVDLVSDSDEEVLEVADPVEVPVARLPAPAKPEQDSDSDSEGAAEGPAGAPRTLVRRRRRRLLDPGEAPVVPVYSGKVQSSLNLIPDNSSLLKLCPSEPEDEADLTNSGSSPSEDDALPSGSPWRKKLRKKCEKEEKKMEEFPDQDISPLPQPSSRNKSRKHTEALQKLREVNKRLQDLRSCLSPKQHQSPALQSTDDEVVLVEGPVLPQSSRLFTLKIRCRADLVRLPVRMSEPLQNVVDHMANHLGVSPNRILLLFGESELSPTATPSTLKLGVADIIDCVVLASSSEATETSQELRLRVQGKEKHQMLEISLSPDSPLKVLMSHYEEAMGLSGHKLSFFFDGTKLSGKELPADLGLESGDLIEVWG
# Legend:
# Type in all cases: cell-based
# 3X NFAT-CAT reporter = 3X NFAT-CAT reporter assay in HepG2 cells
# From the text: FIG. 8 depicts CAT assay results (left) and a bar graph quantitating the relative fold induction of CAT activity (right) in HepG2 cells transfected with a 3X NFAT-CAT reporter gene construct (containing three NFAT binding sites) and either a control expression plasmid or an NFAT family expression plasmid (NFATp, NFATc, NFAT3 or NFAT4), alone (−) or in combination with a NIP45 expression plasmid (^+).
# To test for a functional role of NIP45 in NFAT-driven transcription, NIP45 was expressed at high levels in HepG2 cells. […] HepG2 cells were transfected with a 3X NFAT-CAT reporter from the IL-2 gene (Venkataraman, L. et al. (1994) Immunity 1:189-196) and control or expression plasmids for a NIP45 and NFAT family members (NFATp, NFATc, NFAT3, NFAT4). HepG2 cells were transfected by the DEAE-Dextran method as described in Hoey, T. et al. (1995) supra, and CAT assays were performed according to standard methodologies. One representative assay for each combination is shown adjacent to a bar graph representing relative CAT activity for each group. Fold induction was calculated by normalizing the CAT activity of cells transfected with the CAT reporter and each parental expression vector to one. Values represent the relative level of CAT expression above this control transfection. All transfections were performed at least three times with one representative autoradiograph shown.
# IL-4 promoter = assay: IL-4-CAT reporter assay in HepG2 cells; conditions: NIP45 together with NFATp and c-Maf
# Description: FIG. 9 depicts CAT assay results (left) and a bar graph quantitating the relative fold induction of CAT activity (right) in HepG2 cells transfected with an IL-4-CAT reporter gene, construct (extending to −732 bp of the IL-4 promoter) and combinations of NFATp, NIP45 and/or c-Maf expression constructs, as indicated.
# Although a reporter construct containing multiple copies of the NFAT binding site provides a sensitive method for measuring transactivation by NFAT and NIP45, it was determined if NIP45 was functional in the context of a native NFAT-dependent promoter. IL-4 expression is highly tissue specific and restricted to the Th2 subset of T cells and to mast cells. […] Thus, the IL-4 promoter is not active in the HepG2 cell line but can be activated by the introduction of NFATp and c-maf. In cotransfection experiments carried out as described above, HepG2 cells were transfected with an IL-4-CAT reporter construct (extending to −732 bp of the IL-4 promoter) and expression vectors or controls for NIP45, NFATp and c-Maf. The controls for NIP45 was a frame shift mutant at amino acid 13. Controls for NFATp and c-Maf were the empty expression vectors pREP4 and pMEX respectively (Ho, I. C. et al. (1996) Cell 85:973-983). The results of these experiments are shown in FIG. 9 (representative CAT assays and bar graphs are depicted as in FIG. 8).
# M12 B lymphoma cells = assay: Endogenous IL-4 production by transfected M12 B lymphoma cells (ELISA); conditions: M12 cells cotransfected with NFATp and c-Maf; supernatants at 72 hours
# Description: FIG. 10 is a bar graph depicting the level of IL-4 (in pg/ml) in the supernatants of M12 B lymphoma cells transiently cotransfected with expression plasmids for NFATp, c-Maf and a pCI vector control (top bar) or expression plasmids for NFATp, c-Maf and NIP45 (bottom bar).
# M12 cells were transiently transfected by electroporation as previously described (Ho, I. C. et al. (1996) Cell 85:973-983) by incubating 3×10^6 cells in 0.4 ml of PBS with 5 μg of each plasmid for 10 minutes at room temperature prior to electroporation at 975 μF, 280 V. Levels of IL-4 in the supernatants harvested 72 hours later were measured by a commercially available IL-4 ELISA (Pharmingen), performed according to the manufacturer's instructions except with modification as described (Ho, I. C. et al. (1996) supra). Four independent sets of transient transfections were done and assayed for secretion of IL-4 into the culture supernatant. For each set of transfections, inclusion of NIP45 led to a dramatic increase in IL-4 production.
molecule,measurement,setting,value
B1,increase in CAT activity over vector alone,3X NFAT-CAT reporter; NIP45 cotransfected with NFATp,25-30 fold
same,increase in CAT activity relative to transfection with NFATp alone,3X NFAT-CAT reporter; NIP45 cotransfected with NFATp,4-5 fold
same,CAT expression from 3X NFAT-CAT reporter,3X NFAT-CAT reporter; NIP45 transfected alone,did not lead to a significant increase
same,increase in activity of the IL-4 promoter relative to NFATp and c-Maf alone,IL-4 promoter,9 fold
same,endogenous IL-4 production relative to cells that did not receive NIP45,M12 B lymphoma cells,50-200 fold

# Reference: patent US20090048117A1, “MODULATION OF IMMUNE SYSTEM FUNCTION BY MODULATION OF POLYPEPTIDE ARGININE METHYLTRANSFERASES” (President and Fellows of Harvard College, priority 2003, published 2009)
